Data on one molecule can be found in patent US20210060185A1.

For this assay, the target named is T1, GvpA of Anabaena flos-aquae (primary shell protein of the gas vesicle) (Anabaena flos-aquae) (UniProt P10397).
T1 sequence: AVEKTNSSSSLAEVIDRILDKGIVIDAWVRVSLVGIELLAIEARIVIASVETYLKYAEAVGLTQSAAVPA
The assay is described as follows: cell-based or functional assay.

B1: WT Ana GvpC (under pTet promoter) (protein)
chain: MISLMAKIRQEHQSIAEKVAELSLETREFLSVTTAKRQEQAEKQAQELQAFYKDLQETSQQFLSETAQARIAQAEKQAQELLAFHKELQETSQQFLSATAQARIAQAEKQAQELLAFYQEVRETSQQFLSATAQARIAQAEKQAQELLAFHKELQETSQQFLSATADARTAQAKEQKESLLKFRQDLFVSIFG
B1: the nonlinear ultrasound contrast of Nissle cells expressing ASGClpXP, with against without aTc induction of WT GvpC came out at 10 dB.
